In article PMC9482650, “Quantitative fragmentomics allow affinity mapping of interactomes” (Nature Communications, 2022) one finds pKd data, which are given here for one molecule.

Holding throughout (experiment): holdup assay
Holding throughout (settings): plain residues with an end cap or a label only (N-terminal biotin on a linker: (peg)3)

The target of assay [1] is CARD14, Q9BXL6.
The target of assay [2] is T1, CNKSR1, Q969H4.
T1 sequence (Q969H4 191-295, limits assumed, looked up): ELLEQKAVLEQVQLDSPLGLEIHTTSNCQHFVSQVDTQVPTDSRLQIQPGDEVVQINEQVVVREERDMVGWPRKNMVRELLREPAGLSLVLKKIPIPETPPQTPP

Assay [3] addresses T2, DVL1, O14640.
T2 sequence (O14640 246-333, limits assumed, looked up): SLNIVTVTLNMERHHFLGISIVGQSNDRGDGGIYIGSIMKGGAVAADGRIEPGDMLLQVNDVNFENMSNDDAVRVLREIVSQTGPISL

Assay [4] concerns the target GIPC3, Q8TF64.
The target in assay [5] is T3, GRIP1_1, Q9Y3R0.
T3 sequence (Q9Y3R0 48-146, limits assumed, looked up): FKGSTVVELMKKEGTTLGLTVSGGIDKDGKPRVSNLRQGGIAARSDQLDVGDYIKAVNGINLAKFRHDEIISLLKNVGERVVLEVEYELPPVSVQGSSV

Assay [6] concerns the target LIMK1, P53667.
Assay [7] concerns the target LMO7, Q8WWI1.
Assay [8] has as its target MAGI3_4, Q5TCQ9.
Assay [9] addresses MAGI3_5, Q5TCQ9.
For assay [10], the target named is T4, MPDZ_2, O75970.
T4 sequence (O75970 252-347, limits assumed, looked up): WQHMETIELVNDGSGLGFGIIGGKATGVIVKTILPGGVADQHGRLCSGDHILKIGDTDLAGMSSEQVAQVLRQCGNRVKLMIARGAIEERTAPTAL

Assay [11] deals with NHERF2_1, Q15599.
Sequence of NHERF2_1, Q15599 (Q15599 9-91): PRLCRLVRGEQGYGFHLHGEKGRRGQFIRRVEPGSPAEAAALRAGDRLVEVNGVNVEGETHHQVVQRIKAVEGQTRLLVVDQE
The target of assay [12] is PDLIM4, P50479.
Sequence of PDLIM4, P50479 (P50479 1-83): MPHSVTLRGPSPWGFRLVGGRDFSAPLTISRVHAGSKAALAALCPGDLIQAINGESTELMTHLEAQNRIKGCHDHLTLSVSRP
Assay [13] has as its target T5, PDZD11, Q5EBL8.
T5 sequence (Q5EBL8 42-139, limits assumed, looked up): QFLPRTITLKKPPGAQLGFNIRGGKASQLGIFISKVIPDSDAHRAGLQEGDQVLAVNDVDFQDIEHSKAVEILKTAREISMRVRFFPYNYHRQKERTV

For assay [14], the target named is T6, PDZD2_4, O15018.
T6 sequence (O15018 723-823, limits assumed, looked up): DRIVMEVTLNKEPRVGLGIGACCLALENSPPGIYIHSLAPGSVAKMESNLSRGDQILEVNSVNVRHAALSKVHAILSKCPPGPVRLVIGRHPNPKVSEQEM

Assay [15] has as its target T7, PDZD2_5, O15018.
T7 sequence (O15018 2617-2716, limits assumed, looked up): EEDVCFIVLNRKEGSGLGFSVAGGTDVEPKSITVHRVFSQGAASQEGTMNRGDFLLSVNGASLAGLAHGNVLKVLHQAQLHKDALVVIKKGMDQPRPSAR

Assay [16] deals with T8, PDZD2_6, O15018.
T8 sequence (O15018 2745-2839, limits assumed, looked up): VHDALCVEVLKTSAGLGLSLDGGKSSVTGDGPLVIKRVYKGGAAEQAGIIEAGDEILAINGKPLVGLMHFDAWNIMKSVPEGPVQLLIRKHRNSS

Assay [17] has as its target T9, PDZRN3_2, Q9UPQ7.
T9 sequence (Q9UPQ7 414-513, limits assumed, looked up): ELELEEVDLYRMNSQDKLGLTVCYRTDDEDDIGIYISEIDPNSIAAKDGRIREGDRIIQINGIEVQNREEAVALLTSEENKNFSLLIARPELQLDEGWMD

Assay [18] concerns the target PREX1_1, Q8TCU6.
In assay [19] the target is T10, PTPN13_5, Q12923.
T10 sequence (Q12923 1877-1975, limits assumed, looked up): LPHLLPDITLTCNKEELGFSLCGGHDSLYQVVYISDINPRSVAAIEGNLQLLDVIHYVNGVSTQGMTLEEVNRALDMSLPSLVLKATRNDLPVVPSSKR

Assay [20] deals with T11, SHROOM2, Q13796.
T11 sequence (Q13796 21-118, limits assumed, looked up): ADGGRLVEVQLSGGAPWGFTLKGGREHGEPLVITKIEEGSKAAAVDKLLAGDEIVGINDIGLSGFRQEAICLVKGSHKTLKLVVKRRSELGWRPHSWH

Assay [21] concerns the target T12, SHROOM3, Q8TF72.
T12 sequence (Q8TF72 20-120, limits assumed, looked up): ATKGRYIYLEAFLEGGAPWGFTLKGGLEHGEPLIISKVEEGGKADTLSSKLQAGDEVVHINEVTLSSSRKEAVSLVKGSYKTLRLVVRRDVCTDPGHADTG

The target of assay [22] is T13, SIPA1L3, O60292.
T13 sequence (O60292 961-1052, limits assumed, looked up): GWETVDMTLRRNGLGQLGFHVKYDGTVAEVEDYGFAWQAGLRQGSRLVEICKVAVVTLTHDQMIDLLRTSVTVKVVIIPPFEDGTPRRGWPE

In assay [23] the target is T14, TJP3_1, O95049.
T14 sequence (O95049 6-103, limits assumed, looked up): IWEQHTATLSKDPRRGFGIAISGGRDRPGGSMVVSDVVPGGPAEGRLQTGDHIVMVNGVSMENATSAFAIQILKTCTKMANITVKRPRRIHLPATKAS

Sequence of CARD14, Q9BXL6 (Q9BXL6 558-663): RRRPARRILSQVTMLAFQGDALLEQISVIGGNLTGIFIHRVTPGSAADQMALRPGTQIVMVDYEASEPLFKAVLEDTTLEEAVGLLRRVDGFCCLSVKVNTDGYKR
Sequence of MAGI3_5, Q5TCQ9 (Q5TCQ9 847-941): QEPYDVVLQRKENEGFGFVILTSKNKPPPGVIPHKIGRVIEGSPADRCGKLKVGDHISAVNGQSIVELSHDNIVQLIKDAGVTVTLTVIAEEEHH
Sequence of LMO7, Q8WWI1 (Q8WWI1 1037-1138): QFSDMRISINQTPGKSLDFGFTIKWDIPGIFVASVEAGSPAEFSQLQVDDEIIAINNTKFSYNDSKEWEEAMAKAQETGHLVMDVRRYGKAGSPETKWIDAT
Sequence of PREX1_1, Q8TCU6 (Q8TCU6 608-718): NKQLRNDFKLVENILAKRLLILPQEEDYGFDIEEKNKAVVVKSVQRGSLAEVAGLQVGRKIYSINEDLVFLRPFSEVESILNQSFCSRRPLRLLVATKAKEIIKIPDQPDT
Sequence of GIPC3, Q8TF64 (Q8TF64 107-202): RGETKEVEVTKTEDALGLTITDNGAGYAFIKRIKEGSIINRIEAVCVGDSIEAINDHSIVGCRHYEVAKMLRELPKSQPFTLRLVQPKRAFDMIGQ
Sequence of LIMK1, P53667 (P53667 155-268): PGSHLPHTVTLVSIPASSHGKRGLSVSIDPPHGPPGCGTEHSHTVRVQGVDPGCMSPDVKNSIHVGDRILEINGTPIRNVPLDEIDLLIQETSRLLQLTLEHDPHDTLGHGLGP
Sequence of MAGI3_4, Q5TCQ9 (Q5TCQ9 716-815): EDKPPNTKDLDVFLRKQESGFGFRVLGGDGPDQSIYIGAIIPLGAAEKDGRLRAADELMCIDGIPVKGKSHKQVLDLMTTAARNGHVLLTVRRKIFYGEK

The term pKd denotes −log10 of the Kd, conventionally taken in molar units. Take NLNSSEGVPDLLV [SARS-CoV-E, P59637]: the negative logarithm of the Kd (pKd) entry in assay [1], in assay [2], in assay [3], in assay [4], in assay [5] and in assay [6] was “below the threshold” each time. In addition, the negative logarithm of the Kd (pKd) entry in assay [7], in assay [8], in assay [9], in assay [10], in [11] and in assay [12] was “below the threshold” in each case. The pKd result in [13] was “below the threshold”; in [14], “below the threshold”; in assay [15], “below the threshold”; in assay [16], 4.26; in [17] it was “below the threshold”; in assay [18], “below the threshold”. The negative-log Kd (pKd) entry in assay [19], in assay [20], in assay [21], in [22] and in assay [23] was “below the threshold” each time.
